According to patent publication US20220168396A1, “MULTI-RECEPTOR AGONIST AND MEDICAL USE THEREOF” (published 2022):
Square brackets hold non-standard residues; d marks the D form. Ends that are not written are not given here. Aib = CC(C)(N)C(=O)O

T1: human glucose-dependent insulinotropic peptide receptor (human, UniProt P48546)
T1 sequence: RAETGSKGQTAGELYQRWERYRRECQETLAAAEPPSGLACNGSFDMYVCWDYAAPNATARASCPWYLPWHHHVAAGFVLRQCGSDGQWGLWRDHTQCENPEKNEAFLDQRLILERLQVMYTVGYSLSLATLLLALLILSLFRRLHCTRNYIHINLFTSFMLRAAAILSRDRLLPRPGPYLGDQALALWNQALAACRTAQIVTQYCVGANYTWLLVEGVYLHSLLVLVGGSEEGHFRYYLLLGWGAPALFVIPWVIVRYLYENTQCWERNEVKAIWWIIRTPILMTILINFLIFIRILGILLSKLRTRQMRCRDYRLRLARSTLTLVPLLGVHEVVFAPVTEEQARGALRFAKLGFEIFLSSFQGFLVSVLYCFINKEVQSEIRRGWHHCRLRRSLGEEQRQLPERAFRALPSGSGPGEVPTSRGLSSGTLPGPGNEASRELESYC


Key:
[1] = biological target: T1, human glucose-dependent insulinotropic …; test: cell-based or functional assay
[2] = biological target: human glucagon-like peptide-1 receptor (human, UniProt P43220); test: cell-based or functional assay

Row | Binder | Activity for human GIPR (EC50 nM), cAMP HTRF [1] | Activity for human GLP-1R (EC50 nM), cAMP HTRF [2]
1 | Y[Aib]EGTFTSDYSIYLD[Aib]IAAQEFVQWLLAGGPSSGAPPPSK-NH2 (N-terminus assumed; SMILES CC[C@H](C)[C@H](NC(=O)[C@H](CO)NC(=O)[C@H](Cc1ccc(O)cc1)NC(=O)[C@H](CC(=O)O)NC(=O)[C@H](CO)NC(=O)[C@@H](NC(=O)[C@H](Cc1ccccc1)NC(=O)[C@@H](NC(=O)CNC(=O)[C@H](CCC(=O)O)NC(=O)C(C)(C)NC(=O)[C@@H](N)Cc1ccc(O)cc1)[C@@H](C)O)[C@@H](C)O)C(=O)N[C@@H](Cc1ccc(O)cc1)C(=O)N[C@@H](CC(C)C)C(=O)N[C@@H](CC(=O)O)C(=O)NC(C)(C)C(=O)N[C@H](C(=O)N[C@@H](C)C(=O)N[C@@H](C)C(=O)N[C@@H](CCC(N)=O)C(=O)N[C@@H](CCC(=O)O)C(=O)N[C@@H](Cc1ccccc1)C(=O)N[C@H](C(=O)N[C@@H](CCC(N)=O)C(=O)N[C@@H](Cc1c[nH]c2ccccc12)C(=O)N[C@@H](CC(C)C)C(=O)N[C@@H](CC(C)C)C(=O)N[C@@H](C)C(=O)NCC(=O)NCC(=O)N1CCC[C@H]1C(=O)N[C@@H](CO)C(=O)N[C@@H](CO)C(=O)NCC(=O)N[C@@H](C)C(=O)N1CCC[C@H]1C(=O)N1CCC[C@H]1C(=O)N1CCC[C@H]1C(=O)N[C@@H](CO)C(=O)N[C@@H](CCCCN)C(N)=O)C(C)C)[C@@H](C)CC) [Compound No. 22] | 0.018 nM | 0.051 nM
2 | Y[Aib]EGTFTSDYSIYLDKEAAKEFVNWLLAGGPSSGAPPPSK-NH2 (N-terminus assumed; SMILES CC[C@H](C)[C@H](NC(=O)[C@H](CO)NC(=O)[C@H](Cc1ccc(O)cc1)NC(=O)[C@H](CC(=O)O)NC(=O)[C@H](CO)NC(=O)[C@@H](NC(=O)[C@H](Cc1ccccc1)NC(=O)[C@@H](NC(=O)CNC(=O)[C@H](CCC(=O)O)NC(=O)C(C)(C)NC(=O)[C@@H](N)Cc1ccc(O)cc1)[C@@H](C)O)[C@@H](C)O)C(=O)N[C@@H](Cc1ccc(O)cc1)C(=O)N[C@@H](CC(C)C)C(=O)N[C@@H](CC(=O)O)C(=O)N[C@@H](CCCCN)C(=O)N[C@@H](CCC(=O)O)C(=O)N[C@@H](C)C(=O)N[C@@H](C)C(=O)N[C@@H](CCCCN)C(=O)N[C@@H](CCC(=O)O)C(=O)N[C@@H](Cc1ccccc1)C(=O)N[C@H](C(=O)N[C@@H](CC(N)=O)C(=O)N[C@@H](Cc1c[nH]c2ccccc12)C(=O)N[C@@H](CC(C)C)C(=O)N[C@@H](CC(C)C)C(=O)N[C@@H](C)C(=O)NCC(=O)NCC(=O)N1CCC[C@H]1C(=O)N[C@@H](CO)C(=O)N[C@@H](CO)C(=O)NCC(=O)N[C@@H](C)C(=O)N1CCC[C@H]1C(=O)N1CCC[C@H]1C(=O)N1CCC[C@H]1C(=O)N[C@@H](CO)C(=O)N[C@@H](CCCCN)C(N)=O)C(C)C) [Compound No. 19] | 0.02 nM | 0.024 nM
3 | Y[Aib]EGTFTSDYSIYLEKE[Aib]AKEFVNWLLAGGPSSGAPPPSK-NH2 (N-terminus assumed; SMILES CC[C@H](C)[C@H](NC(=O)[C@H](CO)NC(=O)[C@H](Cc1ccc(O)cc1)NC(=O)[C@H](CC(=O)O)NC(=O)[C@H](CO)NC(=O)[C@@H](NC(=O)[C@H](Cc1ccccc1)NC(=O)[C@@H](NC(=O)CNC(=O)[C@H](CCC(=O)O)NC(=O)C(C)(C)NC(=O)[C@@H](N)Cc1ccc(O)cc1)[C@@H](C)O)[C@@H](C)O)C(=O)N[C@@H](Cc1ccc(O)cc1)C(=O)N[C@@H](CC(C)C)C(=O)N[C@@H](CCC(=O)O)C(=O)N[C@@H](CCCCN)C(=O)N[C@@H](CCC(=O)O)C(=O)NC(C)(C)C(=O)N[C@@H](C)C(=O)N[C@@H](CCCCN)C(=O)N[C@@H](CCC(=O)O)C(=O)N[C@@H](Cc1ccccc1)C(=O)N[C@H](C(=O)N[C@@H](CC(N)=O)C(=O)N[C@@H](Cc1c[nH]c2ccccc12)C(=O)N[C@@H](CC(C)C)C(=O)N[C@@H](CC(C)C)C(=O)N[C@@H](C)C(=O)NCC(=O)NCC(=O)N1CCC[C@H]1C(=O)N[C@@H](CO)C(=O)N[C@@H](CO)C(=O)NCC(=O)N[C@@H](C)C(=O)N1CCC[C@H]1C(=O)N1CCC[C@H]1C(=O)N1CCC[C@H]1C(=O)N[C@@H](CO)C(=O)N[C@@H](CCCCN)C(N)=O)C(C)C) [Compound No. 16] | 0.018 nM | 0.007 nM
4 | Y[Aib]EGTFTSDYSIYLEKEA[Aib]KEFVNWLLAGGPSSGAPPPSK-NH2 (N-terminus assumed; SMILES CC[C@H](C)[C@H](NC(=O)[C@H](CO)NC(=O)[C@H](Cc1ccc(O)cc1)NC(=O)[C@H](CC(=O)O)NC(=O)[C@H](CO)NC(=O)[C@@H](NC(=O)[C@H](Cc1ccccc1)NC(=O)[C@@H](NC(=O)CNC(=O)[C@H](CCC(=O)O)NC(=O)C(C)(C)NC(=O)[C@@H](N)Cc1ccc(O)cc1)[C@@H](C)O)[C@@H](C)O)C(=O)N[C@@H](Cc1ccc(O)cc1)C(=O)N[C@@H](CC(C)C)C(=O)N[C@@H](CCC(=O)O)C(=O)N[C@@H](CCCCN)C(=O)N[C@@H](CCC(=O)O)C(=O)N[C@@H](C)C(=O)NC(C)(C)C(=O)N[C@@H](CCCCN)C(=O)N[C@@H](CCC(=O)O)C(=O)N[C@@H](Cc1ccccc1)C(=O)N[C@H](C(=O)N[C@@H](CC(N)=O)C(=O)N[C@@H](Cc1c[nH]c2ccccc12)C(=O)N[C@@H](CC(C)C)C(=O)N[C@@H](CC(C)C)C(=O)N[C@@H](C)C(=O)NCC(=O)NCC(=O)N1CCC[C@H]1C(=O)N[C@@H](CO)C(=O)N[C@@H](CO)C(=O)NCC(=O)N[C@@H](C)C(=O)N1CCC[C@H]1C(=O)N1CCC[C@H]1C(=O)N1CCC[C@H]1C(=O)N[C@@H](CO)C(=O)N[C@@H](CCCCN)C(N)=O)C(C)C) [Compound No. 17] | 0.057 nM | 0.01 nM
5 | Y[Aib]EGTFTSDYSIYLDKIAAQEFVNWLLAGGPSSGAPPPSK-NH2 (N-terminus assumed; SMILES CC[C@H](C)[C@H](NC(=O)[C@H](CCCCN)NC(=O)[C@H](CC(=O)O)NC(=O)[C@H](CC(C)C)NC(=O)[C@H](Cc1ccc(O)cc1)NC(=O)[C@@H](NC(=O)[C@H](CO)NC(=O)[C@H](Cc1ccc(O)cc1)NC(=O)[C@H](CC(=O)O)NC(=O)[C@H](CO)NC(=O)[C@@H](NC(=O)[C@H](Cc1ccccc1)NC(=O)[C@@H](NC(=O)CNC(=O)[C@H](CCC(=O)O)NC(=O)C(C)(C)NC(=O)[C@@H](N)Cc1ccc(O)cc1)[C@@H](C)O)[C@@H](C)O)[C@@H](C)CC)C(=O)N[C@@H](C)C(=O)N[C@@H](C)C(=O)N[C@@H](CCC(N)=O)C(=O)N[C@@H](CCC(=O)O)C(=O)N[C@@H](Cc1ccccc1)C(=O)N[C@H](C(=O)N[C@@H](CC(N)=O)C(=O)N[C@@H](Cc1c[nH]c2ccccc12)C(=O)N[C@@H](CC(C)C)C(=O)N[C@@H](CC(C)C)C(=O)N[C@@H](C)C(=O)NCC(=O)NCC(=O)N1CCC[C@H]1C(=O)N[C@@H](CO)C(=O)N[C@@H](CO)C(=O)NCC(=O)N[C@@H](C)C(=O)N1CCC[C@H]1C(=O)N1CCC[C@H]1C(=O)N1CCC[C@H]1C(=O)N[C@@H](CO)C(=O)N[C@@H](CCCCN)C(N)=O)C(C)C) [Compound No. 20] | 0.008 nM | 0.027 nM
6 | Y[Aib]EGTFTSDYSIYLE[Aib]IAAQEFVNWLLAGGPSSGAPPPSK-NH2 (N-terminus assumed; SMILES CC[C@H](C)[C@H](NC(=O)[C@H](CO)NC(=O)[C@H](Cc1ccc(O)cc1)NC(=O)[C@H](CC(=O)O)NC(=O)[C@H](CO)NC(=O)[C@@H](NC(=O)[C@H](Cc1ccccc1)NC(=O)[C@@H](NC(=O)CNC(=O)[C@H](CCC(=O)O)NC(=O)C(C)(C)NC(=O)[C@@H](N)Cc1ccc(O)cc1)[C@@H](C)O)[C@@H](C)O)C(=O)N[C@@H](Cc1ccc(O)cc1)C(=O)N[C@@H](CC(C)C)C(=O)N[C@@H](CCC(=O)O)C(=O)NC(C)(C)C(=O)N[C@H](C(=O)N[C@@H](C)C(=O)N[C@@H](C)C(=O)N[C@@H](CCC(N)=O)C(=O)N[C@@H](CCC(=O)O)C(=O)N[C@@H](Cc1ccccc1)C(=O)N[C@H](C(=O)N[C@@H](CC(N)=O)C(=O)N[C@@H](Cc1c[nH]c2ccccc12)C(=O)N[C@@H](CC(C)C)C(=O)N[C@@H](CC(C)C)C(=O)N[C@@H](C)C(=O)NCC(=O)NCC(=O)N1CCC[C@H]1C(=O)N[C@@H](CO)C(=O)N[C@@H](CO)C(=O)NCC(=O)N[C@@H](C)C(=O)N1CCC[C@H]1C(=O)N1CCC[C@H]1C(=O)N1CCC[C@H]1C(=O)N[C@@H](CO)C(=O)N[C@@H](CCCCN)C(N)=O)C(C)C)[C@@H](C)CC) [Compound No. 18] | 0.012 nM | 0.022 nM
